{"source": "patent US20190040130A1", "about": "(Alector, published 2019)", "binders": {"B1": {"name": "AL2p (parental mouse anti-TREM2 antibody) (antibody, human IgG1, V domains shown)", "VH": "QVQLQQSGPELVKPGASLKISCKASGYAFSSSWMNWVKQRPGKGLEWIGRIYPGDGDTNYNGEFRVRATLTADTSSTTAYMQLSSLTSEDSAVYFCARLLRNQPGESYAMDYWGQGASVTVSS", "VL": "DVVMTQTPLSLPVSLGDQASISCRSSQSLVHSNGYTYLHWYLQKPGQSPKLLIYKVSNRFSGVPDRFSGSGSGTDFTLKISRVEADDLGVYFCSQSTRVPYTFGGGTKLEIK", "notes": "Mouse variable regions; tested as Fab, as human-mouse chimera (human IgG1 Fc) and as msIgG1; see assay; also called 9F5; 9F5a"}, "B2": {"name": "AL2p-58 huIgG1 PSEG (antibody)", "heavy": "not shown", "light": "DVVMTQSPDSLAVSLGERATINCRSSQSLVHSNRYTYLHWYQQKPGQSPKLLIYKVSNRFSGVPDRFSGSGSGTDFTLKISRVEAEDVGVYYCSQSTRVPYTFGQGTKLEIKRTVAAPSVFIFPPSDEQLKSGTASVVCLLNNFYPREAKVQWKVDNALQSGNSQESVTEQDSKDSTYSLSSTLTLSKADYEKHKVYACEVTHQGLSSPVTKSFNRGEC"}, "B3": {"name": "AL2p-h76 (antibody, IgG1, V domains shown)", "VH": "QVQLVQSGAEVKKPGASVKVSCKASGYAFSSSWMNWVRQAPGQRLEWIGRIYPGDGDTNYAQKFQGRATITADTSASTAYMELSSLRSEDTAVYFCARLLRNQPGESYAMDYWGQGTLVTVSS", "VL": "DVVMTQSPDSLAVSLGERATINCRSSQSLVHSNGYTYLHWYQQKPGQSPKLLIYKVSNRFSGVPDRFSGSGSGTDFTLTISSLQAEDVAVYYCSQSTRVPYTFGGGTKVEIK", "notes": "IgG1; Fab in monovalent BLI"}, "B4": {"name": "AL2p-31 msFc (antibody, V domains shown)", "VH": "B3 VH with A16S, S32Q, R44G, I48M, D55G, Q62R, A68V, T74E, A76T, F95Y", "VL": "GVVMTQTPLSLSVTPGQPASISCRSSQSLVHSNGYTYLHWYLQKPGQSPQLLIYKVSNRRSGVPDRFSGSGSGTDFTLKISRVEAEDVGVYYCSQSTRVPYTFGQGTKLEIK"}, "B5": {"name": "AL2p-14 (antibody, IgG1, V domains shown)", "VH": "B3 VH with A16S, S32H, R44G, I48M, A68V, T74E, A76T, F95Y", "VL": "B4 VL with Q27R, R60F"}}, "key": {"[1]": {"target": "T1, human TREM2 expressed on cells (human, UniProt Q9NZC2 19-230)", "T1 construct": "also called huT2 BW; cell expressed TREM2", "T1 sequence": "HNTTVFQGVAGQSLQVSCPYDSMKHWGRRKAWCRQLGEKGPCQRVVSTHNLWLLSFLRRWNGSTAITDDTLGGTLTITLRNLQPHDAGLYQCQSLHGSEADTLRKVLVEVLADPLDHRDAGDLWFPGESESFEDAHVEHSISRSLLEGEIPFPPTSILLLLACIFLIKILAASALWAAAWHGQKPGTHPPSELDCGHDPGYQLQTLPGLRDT", "assay": "FACS, BW cells", "experimental": "To examine cell binding of anti-TREM2 antibodies, recombinant, human TREM2-expressing BW5147. G.1.4 cells (ATCC® TIB48™) were established by stably expressing either mouse TREM2 or human TREM2 together with Dap12 using viral infection. Cells were harvested by scraping, washed in PBS, counted and plated on 96-well U bottom plates at 1×10⁵ cells/well. The plates were spun at 1,400 rpm for 3 minutes and primary anti-TREM2 or control antibodies were added in FACS buffer (PBS+2% FBS) and incubated on ice for one hour. Cells were subsequently centrifuged as before and washed thrice with FACS buffer. Cells were then incubated with anti-human PE conjugated secondary antibody (BD Biosciences) in FACS buffer for 30 minutes on ice. Cells were again washed thrice with FACS buffer and analyzed on a BD FACS Canto. Binding was measured as mean fluorescence intensity in the […]."}, "[2]": {"target": "T2, human TREM2/DAP12 fusion protein in BW5147.G.1.4 NFAT-luciferase reporter cells (human, UniProt O43914 41-113, limits assumed)", "assay": "cell-based or functional assay"}, "[3]": {"target": "T2, human TREM2/DAP12 fusion protein in …", "assay": "cell-based or functional assay", "remark": "listed apart in the source"}, "[4]": {"target": "T2, human TREM2/DAP12 fusion protein in …", "assay": "cell-based or functional assay", "remark": "listed apart in the source"}, "[5]": {"target": "T2, human TREM2/DAP12 fusion protein in …", "assay": "cell-based or functional assay", "remark": "listed apart in the source"}, "[6]": {"target": "T2, human TREM2/DAP12 fusion protein in …", "assay": "cell-based or functional assay", "remark": "listed apart in the source"}, "[7]": {"target": "T2, human TREM2/DAP12 fusion protein in …", "assay": "cell-based or functional assay", "remark": "listed apart in the source"}, "[8]": {"target": "T2, human TREM2/DAP12 fusion protein in …", "assay": "cell-based or functional assay", "remark": "listed apart in the source"}}, "note": "Changes are numbered by the printed parent chain.", "data": [{"binder": "B1", "values": [{"measurement": "Cell binding (FOB)", "setting": "[1]", "result": 79, "unit": "fold over background"}, {"measurement": "EC50 (read off the curve); NFAT:luciferase luminescence, BWZ reporter cells, soluble antibody, 6 h", "setting": "[2]", "result": "~2", "unit": "µg/mL"}, {"measurement": "EC50 (read off the curve); NFAT:luciferase luminescence, BWZ reporter cells co-cultured 1:1 with THP-1 cells, 6 h", "setting": "[3]", "result": "~1", "unit": "µg/mL"}]}, {"binder": "B2", "values": [{"measurement": "plate bound signal activation, fold over AL2p", "setting": "[4]", "result": 10, "unit": "fold"}]}, {"binder": "B3", "values": [{"measurement": "Cell binding (FOB)", "setting": "[1]", "result": 86, "unit": "fold over background"}, {"measurement": "Soluble luciferase activation at 10 µg/ml", "setting": "[5]", "result": 6.52, "unit": "fold over control"}]}, {"binder": "B4", "values": [{"measurement": "EC50 (read off the curve); NFAT:luciferase luminescence, BWZ reporter cells, soluble IgG", "setting": "[6]", "result": "~0.8", "unit": "µg/mL"}, {"measurement": "EC50 (read off the curve); NFAT:luciferase luminescence, BWZ reporter cells, plate bound IgG", "setting": "[7]", "result": "~3", "unit": "µg/mL"}]}, {"binder": "B5", "values": [{"measurement": "Luciferase activation plate bound 33 nM IgG", "setting": "[8]", "result": 22.1, "unit": "FOC"}]}]}
